{"source": "the supplement of paper PMC10567573", "parents": {"B1": {"name": "PHTF1 (parent)", "chain": "RVKLISNKGTETDNDPSCVHPIIK"}}}
{"variants_of": "B1", "test": "protein stability index of a GFP-peptide fusion (GPS, HEK-293T) (PSI 1-6); higher = more stable", "settings": "c terminus: a fixed tail appended"}
{"variant": "RVKLISNKGTETDNDASCVHPIIK", "note": "[P16A]", "protein stability index": 3.98}
{"variant": "RVKLISNKGTETDNDFSCVHPIIK", "note": "[P16F]", "protein stability index": 3.48}
{"variant": "RVKLISNKGTETDNDISCVHPIIK", "note": "[P16I]", "protein stability index": 3.67}
{"variant": "RVKLISNKGTETDNDQSCVHPIIK", "note": "[P16Q]", "protein stability index": 4.03}
{"variant": "RVKLISNKGTETDNDGSCVHPIIK", "note": "[P16G]", "protein stability index": 4.55}
{"variant": "RVKLISNKGTETDNDMSCVHPIIK", "note": "[P16M]", "protein stability index": 3.96}
{"variant": "RVKLISNKGTETDNDNSCVHPIIK", "note": "[P16N]", "protein stability index": 3.68}
{"variant": "RVKLISNCGTETDNDPSCVHPIIK", "note": "[K8C]", "protein stability index": 3.04}
{"variant": "RVKLISNLGTETDNDPSCVHPIIK", "note": "[K8L]", "protein stability index": 3.33}
{"variant": "RVKLISNFGTETDNDPSCVHPIIK", "note": "[K8F]", "protein stability index": 3.56}
{"variant": "RVKLISNVGTETDNDPSCVHPIIK", "note": "[K8V]", "protein stability index": 3.88}
{"variant": "RVKLISNQGTETDNDPSCVHPIIK", "note": "[K8Q]", "protein stability index": 4.7}
{"variant": "RVKLISNWGTETDNDPSCVHPIIK", "note": "[K8W]", "protein stability index": 2.89}
{"variant": "RVKLISNAGTETDNDPSCVHPIIK", "note": "[K8A]", "protein stability index": 4.1}
{"variant": "RVKLISNGGTETDNDPSCVHPIIK", "note": "[K8G]", "protein stability index": 4.62}
{"variant": "RVKLISNKGTETDNPPSCVHPIIK", "note": "[D15P]", "protein stability index": 4.1}
{"variant": "RVKLISNKGTETDNKPSCVHPIIK", "note": "[D15K]", "protein stability index": 3.79}
{"variant": "RVKLISNKGTETDNFPSCVHPIIK", "note": "[D15F]", "protein stability index": 2.87}
{"variant": "RVKLISNKGTETDNQPSCVHPIIK", "note": "[D15Q]", "protein stability index": 3.82}
{"variant": "RVKLISNKGTETDNMPSCVHPIIK", "note": "[D15M]", "protein stability index": 3.62}
{"variant": "RVKLISNKGTETDNIPSCVHPIIK", "note": "[D15I]", "protein stability index": 3.29}
{"variant": "RVKLISNKGTETDNSPSCVHPIIK", "note": "[D15S]", "protein stability index": 3.9}
{"variant": "RVKLISNKGTETDNWPSCVHPIIK", "note": "[D15W]", "protein stability index": 2.04}
{"variant": "RVKLISNKGTETDNNPSCVHPIIK", "note": "[D15N]", "protein stability index": 4.06}
{"variant": "RVWLISNKGTETDNDPSCVHPIIK", "note": "[K3W]", "protein stability index": 2.56}
{"variant": "RVRLISNKGTETDNDPSCVHPIIK", "note": "[K3R]", "protein stability index": 3.92}
{"variant": "RVCLISNKGTETDNDPSCVHPIIK", "note": "[K3C]", "protein stability index": 3.52}
{"variant": "RVLLISNKGTETDNDPSCVHPIIK", "note": "[K3L]", "protein stability index": 2.72}
{"variant": "RVILISNKGTETDNDPSCVHPIIK", "note": "[K3I]", "protein stability index": 2.81}
{"variant": "RVGLISNKGTETDNDPSCVHPIIK", "note": "[K3G]", "protein stability index": 4.31}
{"variant": "RVYLISNKGTETDNDPSCVHPIIK", "note": "[K3Y]", "protein stability index": 2.86}
{"variant": "RVSLISNKGTETDNDPSCVHPIIK", "note": "[K3S]", "protein stability index": 4.33}
{"variant": "RVQLISNKGTETDNDPSCVHPIIK", "note": "[K3Q]", "protein stability index": 4.07}
{"variant": "RVKLISNKGTETDNDPSNVHPIIK", "note": "[C18N]", "protein stability index": 4.5}
{"variant": "RVKLISNKGTETDNDPSHVHPIIK", "note": "[C18H]", "protein stability index": 4.49}
{"variant": "RVKLISNKGTETDNDPSGVHPIIK", "note": "[C18G]", "protein stability index": 4.3}
{"variant": "RVKLISNKGTETDNDPSKVHPIIK", "note": "[C18K]", "protein stability index": 4.32}
{"variant": "RVKLISNKGTETDCDPSCVHPIIK", "note": "[N14C]", "protein stability index": 3.72}
{"variant": "RVKLISNKGTETDWDPSCVHPIIK", "note": "[N14W]", "protein stability index": 2.65}
{"variant": "RVKLISNKGTETDKDPSCVHPIIK", "note": "[N14K]", "protein stability index": 3.65}
{"variant": "RVKLISNKGTETDFDPSCVHPIIK", "note": "[N14F]", "protein stability index": 3.06}
{"variant": "RVKLISNKGTETDIDPSCVHPIIK", "note": "[N14I]", "protein stability index": 3.06}
{"variant": "RVKLISNKGTETDADPSCVHPIIK", "note": "[N14A]", "protein stability index": 4.25}
{"variant": "RVKLISNKGTETDRDPSCVHPIIK", "note": "[N14R]", "protein stability index": 3.71}
{"variant": "RVKLISNKGTETDEDPSCVHPIIK", "note": "[N14E]", "protein stability index": 4.53}
{"variant": "RVKLISNKGTETDLDPSCVHPIIK", "note": "[N14L]", "protein stability index": 3.48}
{"variant": "RVKLISNKGTETDTDPSCVHPIIK", "note": "[N14T]", "protein stability index": 4.16}
{"variant": "RVKLISNKGTETDSDPSCVHPIIK", "note": "[N14S]", "protein stability index": 4.56}
{"variant": "RVKLIGNKGTETDNDPSCVHPIIK", "note": "[S6G]", "protein stability index": 4.38}
{"variant": "RVKLIANKGTETDNDPSCVHPIIK", "note": "[S6A]", "protein stability index": 4}
{"variant": "RVKLILNKGTETDNDPSCVHPIIK", "note": "[S6L]", "protein stability index": 2.97}
{"variant": "RVKLIKNKGTETDNDPSCVHPIIK", "note": "[S6K]", "protein stability index": 4.36}
{"variant": "RVKLIENKGTETDNDPSCVHPIIK", "note": "[S6E]", "protein stability index": 3.85}
{"variant": "RVKLIRNKGTETDNDPSCVHPIIK", "note": "[S6R]", "protein stability index": 3.62}
{"variant": "RVKLICNKGTETDNDPSCVHPIIK", "note": "[S6C]", "protein stability index": 3.76}
{"variant": "RVKLIVNKGTETDNDPSCVHPIIK", "note": "[S6V]", "protein stability index": 3.52}
{"variant": "RVKLISNKGTETDNDPSCTHPIIK", "note": "[V19T]", "protein stability index": 4.36}
{"variant": "RVKLISNKGTETDNDPSCLHPIIK", "note": "[V19L]", "protein stability index": 3.68}
{"variant": "RVKLISNKGTETDNDPSCPHPIIK", "note": "[V19P]", "protein stability index": 4.64}
{"variant": "RVKLISNKGTETDNDPSCWHPIIK", "note": "[V19W]", "protein stability index": 3.19}
{"variant": "RVKLISNKGTETDNDPSCHHPIIK", "note": "[V19H]", "protein stability index": 3.87}
{"variant": "RVKLISNKGTETDNDPSCRHPIIK", "note": "[V19R]", "protein stability index": 4.21}
{"variant": "RVKLISNKGTETDNDPSCDHPIIK", "note": "[V19D]", "protein stability index": 4.74}
{"variant": "RVKLISNKGTETDNDPSCAHPIIK", "note": "[V19A]", "protein stability index": 4.34}
{"variant": "RVKLISNKGTETDNDPSCIHPIIK", "note": "[V19I]", "protein stability index": 3.84}
{"variant": "RVKLISNKGTETDNDPSCSHPIIK", "note": "[V19S]", "protein stability index": 4.47}
{"variant": "RVKLISNKGWETDNDPSCVHPIIK", "note": "[T10W]", "protein stability index": 2.66}
{"variant": "RVKLISNKGHETDNDPSCVHPIIK", "note": "[T10H]", "protein stability index": 4.52}
{"variant": "RVKLISNKGGETDNDPSCVHPIIK", "note": "[T10G]", "protein stability index": 4.01}
{"variant": "RVKLISNKGLETDNDPSCVHPIIK", "note": "[T10L]", "protein stability index": 3.38}
{"variant": "RVKLISNKGMETDNDPSCVHPIIK", "note": "[T10M]", "protein stability index": 3.98}
{"variant": "RVKLISNKGCETDNDPSCVHPIIK", "note": "[T10C]", "protein stability index": 3.8}
{"variant": "RVKLISNKGKETDNDPSCVHPIIK", "note": "[T10K]", "protein stability index": 3.95}
{"variant": "RVKLISNKGEETDNDPSCVHPIIK", "note": "[T10E]", "protein stability index": 4.26}
{"variant": "VVKLISNKGTETDNDPSCVHPIIK", "note": "[R1V]", "protein stability index": 3.41}
{"variant": "MVKLISNKGTETDNDPSCVHPIIK", "note": "[R1M]", "protein stability index": 3.66}
{"variant": "EVKLISNKGTETDNDPSCVHPIIK", "note": "[R1E]", "protein stability index": 4.14}
{"variant": "NVKLISNKGTETDNDPSCVHPIIK", "note": "[R1N]", "protein stability index": 4.63}
{"variant": "CVKLISNKGTETDNDPSCVHPIIK", "note": "[R1C]", "protein stability index": 3.93}
{"variant": "RVKHISNKGTETDNDPSCVHPIIK", "note": "[L4H]", "protein stability index": 4.27}
{"variant": "RVKNISNKGTETDNDPSCVHPIIK", "note": "[L4N]", "protein stability index": 4.48}
{"variant": "RVKVISNKGTETDNDPSCVHPIIK", "note": "[L4V]", "protein stability index": 3.86}
{"variant": "RVKYISNKGTETDNDPSCVHPIIK", "note": "[L4Y]", "protein stability index": 3.77}
{"variant": "RVKAISNKGTETDNDPSCVHPIIK", "note": "[L4A]", "protein stability index": 4.57}
{"variant": "RVKTISNKGTETDNDPSCVHPIIK", "note": "[L4T]", "protein stability index": 4.84}
{"variant": "RVKFISNKGTETDNDPSCVHPIIK", "note": "[L4F]", "protein stability index": 3.9}
{"variant": "RVKEISNKGTETDNDPSCVHPIIK", "note": "[L4E]", "protein stability index": 5.13}
{"variant": "RVKLISNKGTETTNDPSCVHPIIK", "note": "[D13T]", "protein stability index": 3.76}
{"variant": "RVKLISNKGTETKNDPSCVHPIIK", "note": "[D13K]", "protein stability index": 3.74}
{"variant": "RVKLISNKGTETHNDPSCVHPIIK", "note": "[D13H]", "protein stability index": 3.51}
{"variant": "RVKLISNKGTETMNDPSCVHPIIK", "note": "[D13M]", "protein stability index": 3.48}
{"variant": "RVKLISNKGTETLNDPSCVHPIIK", "note": "[D13L]", "protein stability index": 3.4}
{"variant": "RVKLISNKGTETDNDPSCVHPGIK", "note": "[I22G]", "protein stability index": 4.48}
{"variant": "RVKLISNKGTETDNDPSCVHPNIK", "note": "[I22N]", "protein stability index": 4.5}
